The nanobody polyreactivity screen of Harvey et al. (2022)

Assay: yeast display, Sf9 membrane polyspecificity reagent, FACS + sequencing; frameworks hold sequencing errors
How it was run: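 In a synthetic yeast display library (Saccharomyces cerevisiae BJ5465), nanobody expression was induced with galactose for 36–48 hours. FACS gates were set low and high (top ~1%) using anti-HA fluorescence for expression and streptavidin fluorescence for binding of the Sf9 membrane reagent. Each polyreactivity label is drawn from the gate of origin.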

Sequence	polyreactivity (PSR sort gate)
QVQLVESGGGLVQAGGSLRLSCAASGFIFKPNAMGWYRQAPGKERELVAAITWGGDNTYYADSVKGRFTISRDNAKNTVYLQMNSLKPDDTAVYYCAAEWKFHSDASYIYDYWGQGTQVTVSS	high polyreactivity
QVQLVESGGGLVQAGGSLRLSCAASGFIFKPYAMGWYRQAPWKERELVAAITVNGGTTYYADSVKGRFTISRDNAKNTVYLQMNSLKPEDTAVYYCNRGRPGGPSWYHYDYWGQGTQVTVSS	high polyreactivity
QVQLVESGGGLVQAGGSLRLSCAASGFIFKRSAMGWYRQAPGKERELVAAITLSGGDTYYADSVKGRFTISRDNAKNNVYLQMNSLKPEDTAVYYCNAPYIGENYYWGQGTQVTVSS	high polyreactivity
QVQLVESGGGLVQAGGSLRLSCAASGFIFKRYAMGWYRQAPGKERELVAAITSGGSTHYADSVKGRFTISRDNAKNTVYFQMNSLKPEDTAVYYCASRRYKWGVRYDYWGQGTQVTVSS	high polyreactivity
QVQLVESGGGLVQAGGSLRLSCAASGFIFKSNAMGWYRQAPGKERELVAAITKRGGSTYYADSVKGRFTISRDNAKNTVYLQMNSLKPEDTAVYYCAVRKPYSRYGGFDYWGQGTQVTVSS	high polyreactivity
QVQLVESGGGLVQAGGSLRLSCAASGFIFKSYAMGWYRQAPGKERELVAAITSGGSTYYADSVKGRFTISRDNAKNTVYLQMNSLKPEDTAVYYCATRYRFGWGLSWYDYWGQGTQVTVSS	high polyreactivity
QVQLVESGGGLVQAGGSLRLSCAASGFIFLGNAMGWYRQAPGKERELVAAISSGGSTYADSVKGRFTISRDNAKNTVYLQMNSLKPEDTAVNYCAVDRAFRAQNYHEYDYWGQGTQVTVSS	low polyreactivity
QVQLVESGGGLVQAGGSLRLSCAASGFIFLINAMGWYRQAPGKERELVAGITSGGGNTYYADSVKGRFTISRDNAKNTVYLQMYSLKPEDTAVFYCAARLFDYWGQGTQVTVSS	low polyreactivity
QVQLVESGGGLVQAGGSLRLSCAASGFIFLQNAMGWYRQAPGKERELVAVIRLSSCSTYYADSVKGRFTISRDNAKNTVYFEMNSLKPEDTAVYYCAARGYYSGQTTIGMDYWGQGTQVTVSS	low polyreactivity
QVQLVESGGGLVQAGGSLRLSCAASGFIFLSNGMGWYRPAPGKERELVAAITSGGNTNYADSVTGRFTISRDNAKTTVYLQMNSLKPEDTAVYYCAAYWIFITYFGYYSEYAYWGQGTQVTVSS	low polyreactivity
QVQLVESGGGLVQAGGSLRLSCAASGFIFLVNAMGWYRHAPGKERELVAAITTSGASTYYADSVKGRFTISRDNAKNTVYLQMNSLKPEDTAVYYCAAGSYARPEYGYWGQGTQVTVSS	low polyreactivity
QVQLVESGGGLVQAGGSLRLSCAASGFIFLWYAMGWYRQAPGKERELVAAISSGGGRTHYADSVKGRFTISRDNAKNTVYLQMNSLKPEDTAVYYCAAALRGQASRFDYWGQGTKVTVSS	high polyreactivity
QVQLVESGGGLVQAGGSLRLSCAASGFIFLYYAMGWYRQAPGKERELVAAISRSGGRTYYADSVKGRFTISRDNAKNTVYLQMNSLKPEDTAVYYCAADRLGSISGYDYWGQGTQVTVSS	high polyreactivity
QVQLVESGGGLVQAGGSLRLSCAASGFIFNGNAMGWYIQAPGKERELVVAISKSGGRTYYADSVKGRFTISRDNAKYTVYLQMNSLKPEDTAVYDCARRTYTRMYWGQGTQVTVSS	high polyreactivity
QVQLVESGGGLVQAGGSLRLSCAASGFIFNHYAMGWYRQAPGKEREFVAAISWSGGSTYYADSVKGRFTISRDNAKNTVYLQMNSLKPEDTAVYYCAASYNCLWHGDYDYWGQGTQVTVSS	low polyreactivity
QVQLVESGGGLVQAGGSLRLSCAASGFIFNIYAMGWYRQAPGKERELVAAITFSGGSTYYADSVKGRFTISRDNAKNTVYLQKNSLKPEDTAVYYCAADYLSEYTTYDYWGQGTQVTVSS	low polyreactivity
QVQLVESGGGLVQAGGSLRLSCAASGFIFNKYAMGWYRQAPGKERELVATIRRDGSTNYADSVKGRFTISRDNAKNTVYLQMNSLIPEDTAVYYCAVRPYYWSRDYYWGQGTQVTVSS	high polyreactivity
QVQLVESGGGLVQAGGSLRLSCAASGFIFNRYAMGWYRQAPGKERELVATITRRGGRTYFADSVKGRFTISRDNAKNTVYLQMNSLKPEDTAVYYCNADPNVPVETFDYWGQGTQVTVSS	high polyreactivity
QVQLVESGGGLVQAGGSLRLSCAASGFIFNRYVMGWYRQAPGKERELVAVISRGGSTSYADSVKGRFTISRDNAKNTVYLQMNSLKPEDTAVYYCNAVHSRVYYSLGYGYWGLGTQVTVSS	high polyreactivity
QVQLVESGGGLVQAGGSLRLSCAASGFIFPAYTMGWYRQAPGKERELVAAITWSGGSTYYADSVKGRFTISRDNAKNTVYLQMKSLKPEDTAVYYCAAYVSRKYRKGPRFAYDYWGQGTQVTVSS	high polyreactivity
QVQLVESGGGLVQAGGSLRLSCAASGFIFPDDAMGWYSQAPGKERELVASINRSGGSTNYADSVKGRFTISRDHAKNTDYLQMNSLKPEDTAVYYCAPDFSFLGNASARLDYDYWGQGTQVTGSS	low polyreactivity

Sequence	polyreactivity (PSR sort gate)
QVQLVESGGGLVQAGGSLRLSCAASGFIFPEYAMGWYRQAPGKERELVAAINWSGGNTYYADSVKGRFTISRDNAKNTVYLQMNSLKPEDTAVYYCNVDEWVTDDDYWGQGTEVTVSS	low polyreactivity
QVQLVESGGGLVQAGGSLRLSCAASGFIFPEYAMGWYRQAPGKERELVAAINWSGGNTYYADSVKGSFTISRDNAKNTVYLQMNSLKPEDTAVYYCNVDDWVTDDDYWGQGTQVTVSS	low polyreactivity
QVQLVESGGGLVQAGGSLRLSCAASGFIFPFYAMGWYRQAPGKEREFVAAITLSSGSTYYADSVKGRFTISRDNAKNTVFLQMNSLKPEDTAVYYCNADYNVYLYYGYDYWGQGTHVTVSS	low polyreactivity
QVQLVESGGGLVQAGGSLRLSCAASGFIFPFYAMGWYRQAPGKERELVAVIRTSSDRTYYADSVKGRFTISRDNAKNTVYLQMNSLKPEDTAVYYCAAETYRLFDYWGQGTQVTVSS	low polyreactivity
QVQLVESGGGLVQAGGSLRLSCAASGFIFPGYAMGWYRQAPGKERELVAAISRSGGITYYADSVKGRFTISRDNAKNTVYLQMNSLKPEDTAVYYCAARDRVRDDYWGQGTQVTVSS	high polyreactivity
QVQLVESGGGLVQAGGSLRLSCAASGFIFPLYTMGWYRQAPGKERELVAAISVTGGSTYYADSVKGRFTISRDNAKNTVYLQMNSLKPEDTAVYYCNAYLFFLNRVWSFDYWGQGTQVTVSS	high polyreactivity
QVQLVESGGGLVQAGGSLRLSCAASGFIFPRNVMGWYRQAPGKERELVAAISRSGGSTYYADSVKGRFTISPDNVKNTVFLQMNSLIPEDTAVYYFAKRTFYNGEYWGQGTQVTVSS	low polyreactivity
QVQLVESGGGLVQAGGSLRLSCAASGFIFPRYVMGWYRQAPGKERELVAAITQGGGSTYYADSVKGRFTISRDNAKNTVYLQMNSLKPEDTAVYYCAAEVWRSYGYWGQGTQVTVSS	low polyreactivity
QVQLVESGGGLVQAGGSLRLSCAASGFIFPSYAMGWYRQAPGKERELVAAITRSSGSTYYADSVKGRFTISRDNAKNTVYLEMNCLKAVDTAVYYCNAFDYSYYRSPEMDYWGQGTQVTVSS	high polyreactivity
QVQLVESGGGLVQAGGSLRLSCAASGFIFPTYAMGWYRQAPGKERELVAAISRSGGRTYYADSVKGRFTISRDNAKNTVYLQKNSLKPEDTAVYYCAAAYLRRVAYDYWGQGTQVTVSS	high polyreactivity
QVQLVESGGGLVQAGGSLRLSCAASGFIFPVNAMGWYRQAAGKERELVAAITSSGGDTYYADSVKGRFTISRDNAKNTVYLQMNSLKPEDTAVYYCAAEYTQEQEDYDYWGQGTQLTVSS	low polyreactivity
QVQLVESGGGLVQAGGSLRLSCAASGFIFPWYAMGWYRLAPGKERELVAIISWDTGSTYYADSVKGRFTISRDNAKNTVYLQMNSLKPEDTAVYYCVAYVCSTYSAPEYYWGQGTQVTVSS	low polyreactivity
QVQLVESGGGLVQAGGSLRLSCAASGFIFPWYSMVWSRQAPGKERELVAAISRGGRTNYADSVKGRFTISRDNAKNTVYLQMNSLIPEDTAVYYCAKKYYLSGSRADDSWGQGTQVTVSS	high polyreactivity
QVQLVESGGGLVQAGGSLRLSCAASGFIFPYYALGWYRQAPGKEREFVAAISKTAGRTYYADSVKGRFTISRDNAKNTVYLQMNSLKPEDTAVYYCAVGNKRDAYYQYSSYGYWGQGTQVTVSS	low polyreactivity
QVQLVESGGGLVQAGGSLRLSCAASGFIFPYYAMGWYRQAPGKDRELVAAISQSGGSTYYADSVKGRFTISRDYAKNTVYLQMNSLKPEDTEVYYCAKFIPSYHDGDYWGQGTQVTVSS	low polyreactivity
QVQLVESGGGLVQAGGSLRLSCAASGFIFPYYAMGWYRQAPGKERELVAAILTGGSTYYADSVKGRFTISRDNAKNTVYLQMNSLKAEDSAVYYCAARRKYDPNYYWGQGTQVTVSS	high polyreactivity
QVQLVESGGGLVQAGGSLRLSCAASGFIFPYYAMGWYRQAPGKERELVATITSSGGSTYYADSVKGRFTISRDNAKNTVYLQMNSLKPEDTAVYYCAARRRYKYYGSRYDYWGQGTQVTVSS	high polyreactivity
QVQLVESGGGLVQAGGSLRLSCAASGFIFQGYVMGRYRQAPGKVREFVAAISRSGGTTFYADSVKGRFTISRDNAKNPVYLQMNSLKPEDTAVYYCNRAPLGRPGYDYWGPGTQVTVSS	high polyreactivity
QVQLVESGGGLVQAGGSLRLSCAASGFIFQKYAMGWYRQAPGKERELVAAITKRGGSTYYADSVKGRFTISRDNAKNTVYLQMNSLKPEDTAVYYCAAYAYDYEYDYWGQGTQVTVSS	high polyreactivity
QVQLVESGGGLVQAGGSLRLSCAASGFIFQQNAMGWYRQAPAKERELVAAINRSGGSTNYADSVKGRFTISRDNAKNTVYLQMNSLKPEDTAVYYCATNGRSFVSKSTMYYWGQGTQVTVSS	high polyreactivity
